# Experiment: soluble on expression in E. coli; label from the status in PepcDB or PDB records
row,Sequence,soluble on expression in E. coli
1,MSLNNRIIYVVSDSVGETAELVVKAALSQFNGSADDTHVRRIPYVEDIGTINEVISLAKADGGIICFTLVVPEIREYLIAEAEKANVLYYDIIGPLIDKMETAYGLTAKYEPGRVRQLDEDYFKKVEAIEFAVKYDDGRDPRGILKADIVLIGVSRTSKTPLSQYLAHKRLKVANVPIVPEVDPPEELFNVDPKKCIGLKISPDKLNHIRKERLKSLGLNDKAIYANINRIKEELEYFEKIVDRIGCQVVDVSNKAVEETANIIHHLKTKNIEGHHHHHH,soluble
2,MSLNPVNGAILSIEISHPNGFEIDENISAYHDAEYYMDRIFDSGNYDSLIVLTSIKILSQHWEIDNDMVVTSQSIRQLAIDTINSKAESGTIKNYWFKLQSLCEEFKNLSQETLSLSVFDNQVLTLNVNGHGIFRKSAFFESFANQKLNSADGKLMLIFNKFETFISRKSYHKLHEELLQLRKISANEITNLFTKHIEGKISTNEIQTILKDLEQIPGIVEIVKSLIGSSGFELIVDANSISSKELGAFHKISTVMIFKNIMETHKTLLLDLVVLFLTCETNDQIVEFVNQIRATLVQYDVMEVVFTTCLNKGEVETKNMGQVQNSIFWSSVVATHSQLKRLIESLQLNDGYEYFYNNVLPDDYLVDVVIELINNKEYFFLQKKFLTKLNQEGHHHHHH,not soluble
3,MSLNRLSIPYSNKSLDYYFFVIQEASVKRAVLARSGEFQATNANFDNTRQLEQWQSLLLSRPSAIISDPIDSQAIVSAIRRYNREKIPVGIIDTPADGGDVAITVSFDNFQGGVMAAEEIVNRLITRYGRPKGTVLNCYGALASVAWRLRKEGMDSVFAKYPGITYLARPTDGQLEKMLSVTLSTLSEYPDLDAVHAPSDSPSRGIVTALQQKGRWKKIGEAGHVIFVNIDGEPIALKWIQDGYMDACISQDPVAYGEIAVDMIVKHALKGEAVPLGTYQDKKYFWESGEIVQGKTGPTLIIPAFVINRDNVQDPRHWASVAEKTWGIPEGHHHHHH,soluble
4,MSLNSISHIPKAEIHVHLEATITPSLCRKFAKRNKVILSDDFFGSEYAYQWEDFYDFLKKYDIVTSVIHTPEDYYELTYAYLKECASHNVLYVEAMVSSTHAKAKGMTYQSFLDSIQEASLNAERDFGIVSRYLMNGIRHLGPESVQGTAEEVLKNPHPAIVGFGLAGDELHFPPHLFSKTFDMLKEENFPITVHAGEWDGPENIRKAINLLHPTRLGHGVRSIEDLDLVKEIIEKDIVLETCPTSNIATKIYENYENHPVKKLHELGAKVTVNSDDPPFFNATIQGEYEAMSKIGFADDVLISMTRNAIEYSFLDNQKKKEVLTKLNEGHHHHHH,soluble
5,MSLNSNHKQPIFDNVLNRKFQVNEPNRAYVSDMTYIPTHEGWLYLTVVIDLFSRKVVGWNMSSRMKADTVCDALTMAIWQRKPKAGLIVHSDRGSQYASKQYRSLLNQHGLVGSMSKKGDCWDNSVAESFFSRLKDELVHWRNYQTRREAKQDILDYMTMFYNNQRLHSSLDYLSPNQFENRYWGLMKKVAEGHHHHHH,soluble
6,MSLNTPQSAIIPDHAQAGIFIEADFAANRLNDIKAACRASLDALTALKARFPDDILGLTIAFGSKAWATFGHTDEGSEIKPFSEMGNGLAPSTQHDMSIHIQSFRQNAAYALAQSVLGAFGDSICVASEEHGLRLYQDRGLDGFVDGTENPQGDENVREVAIIPEGKPDAGGSYVLLQKYLHDLKKWDAVPVAEQEASVGRGKETDDEFGRDVRLPDSHLGRVNLKENGVGLKIVRRSLPFGKISGEHGLMFTAYCRTLHNIEAQLLSMFGDTDGKTDLLLRHLSAAVSGGYYYAPSVERLQNLEGGSHHHHHH,soluble
7,MSLNTVLRLPLKYPSTNKELKSHEYFESQIAYTGCLIATTTHMVDHISWRLNNDLKTITLTPICISNPFQLECRTISLLLPSQVYPHCIDAVYHGEEGGYLVVDVIDENYLWITLRIEMNDFLHNTKNFRPLTLDQFESWGHISVPYSFELRSNPYCLRVLDERNVVVSLKDGGLLHFQRSSVLADFNVFNCEESAHFHLGGILDGIFKSGRADLTVDGVSSNAAIDATIVPDPSKSLIATLTVSKTIKFWDLKEHSLLRERTIHPQDTNTWLSFGPARYLQCYGNVLGVHSLLQTKHSTSIDFWDVSPLKEDQKSYKILHTVELLSPTINGAPSDSPFSNDIWFIQDFTLKFEKGNFTVLWKSNNSSILTIYDLKNLAENDKPPKLSQWTLSGSEGHHHHHH,not soluble
8,MSLNVIDTLPAFRDYCSELASSHGSLAADAERASGFRYGHEDWLVQFKRDGAGIGLLDPQALAAAGADWNDFNRAVGDAVWILHDSLQDLPGFDELGMEPQRLFDTEIAARLLGLKRFGLAAVTEHFLGLTLAKEHSAADWSYRPLPRDWRNYAALDVELLIELETKMRAELKRQGKMEWAQEEFDYALKEGLGPRKEHLIPWMHVSHITEVMRDRQALAIVRALWTRRDELAREYDIAPTLLLSDSSIIEVAKRKPHNAAQFRSIRSINERVRIHTDSEQDKMFERYAPIQRKIKPSMWKNIIQDALALPPSEWPDVDGGAARRHESQSASAPKSIRVWKERYPERLQVLNRVRKAVSQIAEDTRTPVEIVIKPQYLRNLCWTDEPRKRDVARFLSEQGARDWQVSLVAESVSRAIEGHHHHHH,not soluble
9,MSLNYLSGQAANPRGIIGEITTKIWSSYFEDLSKWTINNTEMAGVTKVLDVGYGGGSNVKNLVNLDQNLTIYGIDISKESYKTASALNKKAISDGKVKLTVADVADMDYREESFDLVYAIQTHMYWDNLQKGFEEIYRVMSQEGVLILSSEKDKIDYHMDEYKTTASLTALLKEIGFREVVEKEKGNWVLYTVKKEGHHHHHH,soluble
10,MSLPDTSPDLPAMSPLAVYRQAVEQRGFAPDEAQRRAAEALERCFQALHEAHRHGAIQGVYLWGPVGRGKTWLMDHFYQCLRVPARRQHFHHFMQWVHQRQFELTGTADPLRALARELARDVRVLCFDELFVSDIGDAILLGSLLRIMFEEGVVLVATSNQPPEQLYADGFNRERFLPAIEAIQRHMAVVAVDGGQDHRLHPGRAEQRYWVVEAGQASGFAELFARLSAGEAASTQPIELGHRPLAVHRHSESVLWCSYAQLCEAPLSALDFIGLCDRYRAILMDDLPCLSASQREGRIARGTEDGAQLVEAGDRELPQLSVHDDGVRRFIALVDECYDRKVPLYLEARVPLEALYTEGYLAFAFRRTLSRLREMQLARFGSDSEGGSHHHHHH,soluble
11,MSLPIRIDKKLPAVEILRTENIFVMDDQRAAHQDIRPLKILILNLMPQKMVTETQLLRHLANTPLQLDIDFLYMESHRSKTTRSEHMETFYKTFPEVKDEYFDGMIITGAPVEHLPFEEVDYWEEFRQMLEWSKTHVYSTLHICWGAQAGLYLRYGVEKYQMDSKLSGIYPQDTLKEGHLLFRGFDDSYVSPHSRHTEISKEEVLNKTNLEILSEGPQVGVSILASRDLREIYSFGHLEYDRDTLAKEYFRDRDAGFDPHIPENYFKDDDVNQVPCLCWSSSAALFFSNWVNHAVYQETPFDWRKIEDDASAYGYLEGHHHHHH,soluble
12,MSLQAPMALVPVRTIYPGEAISPEQVKSVEVTNPNISAGYASDISEVEGMISKQTLLPGRTIPIAALREPSLVVRGTSVKLVFHIGNMTLMASGTPMSDGSLGEVVRVRNIDSGVMVSGTVMKDGTIQVMAKEGHHHHHH,soluble
13,MSLQENRLKYCIQRMATVFEVSLSGYYDWLKRGMSKRKQHHNRCELLVKSAHMDTQQSYGHERLHQHLTSQGHDISLYMVRQIKQEHGIYCKRHKRSKVTTDSNHNKPVYPNLLEQQFDVAAPNIAWVSDITYIWTNEGWVYLAAFKDLYSKEIVGYALNKRMTADLVCEALNNAIKYKRPARGLIVHSDRGSQYCSHQYRQIIDKYGFAGSMSRKGNCYDNAPIESFWGQLKNELIYHKVYETRDEAIKDVVRYIEIFYNRQRIQKGLGFKSPTQVFQDFYRQAAEGHHHHHH,not soluble
14,MSLQFYSVQTNTLKLATTTFNAEGSMLLSTHWTLNLGFSYNPWNFSDTRKIKHFLIEPGARYWFWQTYAGSFISMYAMGARYNVAWDGLLGGDYRYQGWGYGAGMTYGRSWLLSKRWNMEVEAGLGLLVAPYTKYRCEHCGDKVKSGTYFLPTPKLAFNLVYLFEGHHHHHH,not soluble
15,MSLQGKFQPTWESLANYKIPEWFRNVKFGIWAHWGPQCVEGSGDWMARSLYMENSPEYRHHIANYGHPSEFGFKDIIPLWKAEKWDPDKLVAFYKKIGAQYFFALGNHHDNMDLWDSKYQPWNSVNMGPKKDILKGWERAARKHGLYFGVSLHADHAWSWYETSQRHDTQGPKKGIPYDGKLTKADGKGKWWEGYDPQDLYAQNHPLSQDSWDNGTIHRQWAWGNGVCLPTQEYCTNFYNRTLDVINRYNPDLLYFDVTVAPFYPISDAGLKIAAHFYNHNMSMQKGKLNAVMFGKILDANQRKALVWDVERGAPNKIIDEPWQSCSCLGGWHYNTSIYNNNQYKSAADVVKLLVDIVSKNGNLLLSVPLRADGTFDEKEEKILNEFGNWMNINKEAIYQTRPWKIFGEGPIADKDVQLNAQGFNEWAYSKADAKEIRFTQTDKNLYATVLGWPEDGKILIRSLAEGNGLYPTKIGRVELLGYGKVSFTRTDKGLVVDIPAKSLKNIAPVLKIRKEGHHHHHH,soluble
16,MSLQGPNPIITVYSTQDYPILHAELASQVYLMDQVEQWENMISQRLSANPSVAAQQASQIFQSAEWKQSEEQLKRSYQGLISGWQNGIKKVPAVLFQYPGKEDSVIYGETNIAQALSLWQREITKEGTREGHHHHHH,soluble
17,MSLQIAQVLVDVPTMQTNRPYSYRIPTAWQSQVQPGMRVVVPFGRGKRRVQGFVLALDDVTNFDGELKPIDAVVDLAPVLNTEALALTKWLAASTFSFQITCAQTMLPAVMRAKYEKQLRTTATTPATIRTTLFGDQSMVPFDDVATTPAIVSQLLRLQAAGQVDVYYQVKNQARRKTQTAVKAALTNEALQAAVDQVRAGATQQLAVLQGLLTLNGEQLSQKAFCTRFDVTDGAIRTAVQKGWLKKVAVEVYRDPYATSDIKTTKALQLNDEQQVAVDQITQAVDQAATTTFLLEGVTGSGKTEVYLQSMAAALVQGKTALMLVPEISLTPQMVQRVKGRFGKAVAVLHSGLSSGEKYDEWRRIQRGEAQVVVGARSAVFAPLKNLGLIVMDEEHESTYKQDDAPRYHARQVALWRSRYHNCPVVLGSATPSLETRARAEKGVYQRLLLADRVNRRPLPKVSIIDMKKEMQQHAESNFSAPLLVALQDRLERHEQSVLMLNRRGYSSFVLCRDCGFVLKCPNCDISLTLHMDTHTMKCHYCGHEEAIPRNCPNCHSRQIRYYGTGTEKVEEELQDLLPDANIIRMDNDTTRKKGAHAKLLAQFGSGEADILIGTQMIAKGLDFPNVTLVGVLNADTALGLPDFRASERTFQLLTQVSGRAGRAEKSGHVYIQTFNPDHYAIRFAQHHDYEGFFKYEMQMRHRGGYPPYYFTVQITASDLDEGVAAKRMYQLLQWLRPRLAPSTILLGPTPKPIARVNRRYYYQIVIKYKQEPNLAQTLTTLLHETQAQQRQGLQIGIDVEPLHFMEGHHHHHH,soluble
18,MSLQKPKIAFIDDEPRILRSLKMHFRQSHDVFITTDASELMKYVSEHDVQVVISDQRMPDKQGTEVLRDIKAASPNTLRILLTGYADLNAVIDSVNEGEIYRYITKPWQNDELKQIVNKATEIAQQTQEITQNTEGHHHHHH,not soluble
19,MSLQKVKLPLTLDPVRTAQKRLDYQGIYTPDQVERVAESVVSVDSDVECSMSFAIDNQRLAVLNGDAKVTVTLECQRCGKPFTHQVYTTYCFSPVRSDEQAEALPEAYEPIEVNEFGEIDLLAMVEDEIILALPVVPVHDSEHCEVSEADMVFGELPEEAQKPNPFAVLASLKRKEGGSHHHHHH,soluble
